Literature values as cited in PMC13042399.

Target: IGF2 (Homo sapiens) (UniProt P01344)
Sequence (P01344 25-91): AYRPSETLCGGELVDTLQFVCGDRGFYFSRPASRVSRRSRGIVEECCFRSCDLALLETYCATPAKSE

Kd: 40 nM
Substance: IGF2R (from UniProt P11717)
